Publication PMC9482650, “Quantitative fragmentomics allow affinity mapping of interactomes” (Nature Communications, 2022)

T1: APBA2_1, Q99767
T1 sequence (Q99767 563-664, limits assumed, looked up): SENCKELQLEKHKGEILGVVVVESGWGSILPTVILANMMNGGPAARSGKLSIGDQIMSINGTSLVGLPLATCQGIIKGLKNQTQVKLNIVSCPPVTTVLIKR

T2: APBA2_2, Q99767
T2 sequence (Q99767 654-744, limits assumed, looked up): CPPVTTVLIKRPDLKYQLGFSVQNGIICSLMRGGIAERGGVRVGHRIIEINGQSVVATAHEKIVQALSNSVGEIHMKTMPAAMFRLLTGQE

T3: ARHGAP21, Q5T5U3
T3 sequence (Q5T5U3 45-169, limits assumed, looked up): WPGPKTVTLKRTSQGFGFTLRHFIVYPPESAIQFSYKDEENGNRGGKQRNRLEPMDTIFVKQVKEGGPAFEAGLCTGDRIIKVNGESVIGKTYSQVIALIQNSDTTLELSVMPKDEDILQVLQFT

T4: FRMPD1, Q5SYB0
T4 sequence (Q5SYB0 52-145, limits assumed, looked up): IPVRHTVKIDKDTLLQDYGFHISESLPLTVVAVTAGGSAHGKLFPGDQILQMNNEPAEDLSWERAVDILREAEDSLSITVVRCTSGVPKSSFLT

T5: GRIP1_3, Q9Y3R0
T5 sequence (Q9Y3R0 247-346, limits assumed, looked up): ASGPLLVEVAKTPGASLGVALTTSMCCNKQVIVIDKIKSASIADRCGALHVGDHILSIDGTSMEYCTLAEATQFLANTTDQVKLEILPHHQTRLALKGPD

T6: HTRA3, P83110
T6 sequence (P83110 354-453, limits assumed, looked up): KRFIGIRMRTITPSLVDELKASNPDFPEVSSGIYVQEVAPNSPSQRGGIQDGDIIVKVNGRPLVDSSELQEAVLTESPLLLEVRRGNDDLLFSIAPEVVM

T7: LNX2_3, Q8N448
T7 sequence (Q8N448 463-564, limits assumed, looked up): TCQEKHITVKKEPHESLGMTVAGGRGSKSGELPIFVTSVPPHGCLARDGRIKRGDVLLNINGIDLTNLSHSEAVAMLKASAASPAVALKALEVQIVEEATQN

T8: LRRC7, Q96NW7
T8 sequence (Q96NW7 1440-1537, limits assumed, looked up): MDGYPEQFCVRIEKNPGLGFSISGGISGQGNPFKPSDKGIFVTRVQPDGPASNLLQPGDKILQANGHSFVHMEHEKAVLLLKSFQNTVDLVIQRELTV

T9: NHERF3_3, Q5T2W1
T9 sequence (Q5T2W1 238-333, limits assumed, looked up): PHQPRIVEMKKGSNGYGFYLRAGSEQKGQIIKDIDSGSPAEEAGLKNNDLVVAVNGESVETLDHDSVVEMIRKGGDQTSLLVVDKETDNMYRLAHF

T10: NHERF3_4, Q5T2W1
T10 sequence (Q5T2W1 373-468, limits assumed, looked up): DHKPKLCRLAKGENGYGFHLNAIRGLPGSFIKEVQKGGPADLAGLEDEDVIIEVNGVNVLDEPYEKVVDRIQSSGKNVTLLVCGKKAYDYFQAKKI

T11: PDZD2_2, O15018
T11 sequence (O15018 329-429, limits assumed, looked up): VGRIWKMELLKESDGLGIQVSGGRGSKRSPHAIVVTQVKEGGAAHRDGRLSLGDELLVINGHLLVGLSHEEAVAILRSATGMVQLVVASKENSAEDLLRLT

T12: PDZD7_3, Q9H5P4
T12 sequence (Q9H5P4 857-944, limits assumed, looked up): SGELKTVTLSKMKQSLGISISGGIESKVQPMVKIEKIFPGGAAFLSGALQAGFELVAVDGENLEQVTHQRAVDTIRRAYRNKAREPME

T13: TJP3_3, O95049
T13 sequence (O95049 375-456, limits assumed, looked up): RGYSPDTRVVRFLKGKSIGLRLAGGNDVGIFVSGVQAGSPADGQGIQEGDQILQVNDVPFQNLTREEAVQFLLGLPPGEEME

B1: SLCO2B1, O94956 (peptide)
chain: PGKKPEDSRV
B2: CACNA1D, Q01668 (peptide)
chain: ADEMICITTL

biological target: T1, APBA2_1, Q99767; experiment: holdup assay; parameters: key: below the threshold = too weak to quantify, mostly under pKd 3.1 to 4; conditions: plain residues with an end cap or a label only (N-terminal biotin on a linker: ado-ado)

Row | pKd | Binder
1 | below the threshold | B1
2 | below the threshold | B2

biological target: T2, APBA2_2, Q99767; experiment: holdup assay; parameters: key: below the threshold = too weak to quantify, mostly under pKd 3.1 to 4; conditions: plain residues with an end cap or a label only (N-terminal biotin on a linker: ado-ado)

Row | pKd | Binder
3 | below the threshold | B1
4 | below the threshold | B2

biological target: T3, ARHGAP21, Q5T5U3; experiment: holdup assay; parameters: key: below the threshold = too weak to quantify, mostly under pKd 3.1 to 4; conditions: plain residues with an end cap or a label only (N-terminal biotin on a linker: ado-ado)

Row | pKd | Binder
5 | 3.84 | B1
6 | 3.67 | B2

biological target: DLG1_1, Q12959; experiment: holdup assay; parameters: key: below the threshold = too weak to quantify, mostly under pKd 3.1 to 4; conditions: plain residues with an end cap or a label only (N-terminal biotin on a linker: ado-ado)

Row | pKd | Binder
7 | 3.62 | B1
8 | 3.91 | B2

biological target: DLG2_3, Q15700; experiment: holdup assay; parameters: key: below the threshold = too weak to quantify, mostly under pKd 3.1 to 4; conditions: plain residues with an end cap or a label only (N-terminal biotin on a linker: ado-ado)

Row | pKd | Binder
9 | below the threshold | B1
10 | 3.81 | B2

biological target: T4, FRMPD1, Q5SYB0; experiment: holdup assay; parameters: key: below the threshold = too weak to quantify, mostly under pKd 3.1 to 4; conditions: plain residues with an end cap or a label only (N-terminal biotin on a linker: ado-ado)

Row | pKd | Binder
11 | below the threshold | B1
12 | below the threshold | B2

biological target: FRMPD3, Q5JV73; experiment: holdup assay; parameters: key: below the threshold = too weak to quantify, mostly under pKd 3.1 to 4; conditions: plain residues with an end cap or a label only (N-terminal biotin on a linker: ado-ado)
Sequence (Q5JV73 12-100): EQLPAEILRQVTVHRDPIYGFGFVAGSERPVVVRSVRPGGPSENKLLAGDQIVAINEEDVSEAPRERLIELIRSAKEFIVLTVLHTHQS

Row | pKd | Binder
13 | below the threshold | B1
14 | below the threshold | B2

biological target: GOPC, Q9HD26; experiment: holdup assay; parameters: key: below the threshold = too weak to quantify, mostly under pKd 3.1 to 4; conditions: plain residues with an end cap or a label only (N-terminal biotin on a linker: ado-ado)

Row | pKd | Binder
15 | below the threshold | B1
16 | 4.88 | B2

biological target: T5, GRIP1_3, Q9Y3R0; experiment: holdup assay; parameters: key: below the threshold = too weak to quantify, mostly under pKd 3.1 to 4; conditions: plain residues with an end cap or a label only (N-terminal biotin on a linker: ado-ado)

Row | pKd | Binder
17 | below the threshold | B1
18 | below the threshold | B2

biological target: GRIP2_7, Q9C0E4; experiment: holdup assay; parameters: key: below the threshold = too weak to quantify, mostly under pKd 3.1 to 4; conditions: plain residues with an end cap or a label only (N-terminal biotin on a linker: ado-ado)
Sequence (Q9C0E4 934-1023): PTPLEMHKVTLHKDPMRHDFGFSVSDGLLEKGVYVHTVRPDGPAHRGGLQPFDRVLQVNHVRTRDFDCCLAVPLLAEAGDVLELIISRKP

Row | pKd | Binder
19 | below the threshold | B1
20 | 3.62 | B2

biological target: T6, HTRA3, P83110; experiment: holdup assay; parameters: key: below the threshold = too weak to quantify, mostly under pKd 3.1 to 4; conditions: plain residues with an end cap or a label only (N-terminal biotin on a linker: ado-ado)

Row | pKd | Binder
21 | below the threshold | B1
22 | below the threshold | B2

biological target: IL16_3, Q14005; experiment: holdup assay; parameters: key: below the threshold = too weak to quantify, mostly under pKd 3.1 to 4; conditions: plain residues with an end cap or a label only (N-terminal biotin on a linker: ado-ado)
Sequence (Q14005 1107-1207): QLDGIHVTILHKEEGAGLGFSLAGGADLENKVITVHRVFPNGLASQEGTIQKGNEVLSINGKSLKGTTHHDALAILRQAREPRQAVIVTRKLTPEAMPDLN

Row | pKd | Binder
23 | below the threshold | B1
24 | below the threshold | B2

biological target: Inadl_3, Q8NI35; experiment: holdup assay; parameters: key: below the threshold = too weak to quantify, mostly under pKd 3.1 to 4; conditions: plain residues with an end cap or a label only (N-terminal biotin on a linker: ado-ado)
Sequence (Q8NI35 359-469): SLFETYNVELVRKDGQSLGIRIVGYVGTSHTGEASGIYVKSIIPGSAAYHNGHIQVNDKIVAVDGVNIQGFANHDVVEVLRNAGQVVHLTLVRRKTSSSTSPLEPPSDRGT

Row | pKd | Binder
25 | below the threshold | B1
26 | 4.53 | B2

biological target: Inadl_5, Q8NI35; experiment: holdup assay; parameters: key: below the threshold = too weak to quantify, mostly under pKd 3.1 to 4; conditions: plain residues with an end cap or a label only (N-terminal biotin on a linker: ado-ado)
Sequence (Q8NI35 673-780): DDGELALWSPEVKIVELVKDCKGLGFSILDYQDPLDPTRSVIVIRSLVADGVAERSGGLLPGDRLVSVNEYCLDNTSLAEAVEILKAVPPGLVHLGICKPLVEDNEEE

Row | pKd | Binder
27 | below the threshold | B1
28 | below the threshold | B2

biological target: Inadl_9, Q8NI35; experiment: holdup assay; parameters: key: below the threshold = too weak to quantify, mostly under pKd 3.1 to 4; conditions: plain residues with an end cap or a label only (N-terminal biotin on a linker: ado-ado)
Sequence (Q8NI35 1530-1615): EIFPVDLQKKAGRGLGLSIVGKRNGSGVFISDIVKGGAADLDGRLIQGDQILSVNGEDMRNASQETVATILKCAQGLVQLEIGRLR

Row | pKd | Binder
29 | below the threshold | B1
30 | below the threshold | B2

biological target: LNX1_1, Q8TBB1; experiment: holdup assay; parameters: key: below the threshold = too weak to quantify, mostly under pKd 3.1 to 4; conditions: plain residues with an end cap or a label only (N-terminal biotin on a linker: ado-ado)
Sequence (Q8TBB1 261-371): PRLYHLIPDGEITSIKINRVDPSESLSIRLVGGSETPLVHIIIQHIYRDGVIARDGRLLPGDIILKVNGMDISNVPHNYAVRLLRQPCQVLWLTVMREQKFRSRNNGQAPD

Row | pKd | Binder
31 | below the threshold | B1
32 | 4.48 | B2

biological target: T7, LNX2_3, Q8N448; experiment: holdup assay; parameters: key: below the threshold = too weak to quantify, mostly under pKd 3.1 to 4; conditions: plain residues with an end cap or a label only (N-terminal biotin on a linker: ado-ado)

Row | pKd | Binder
33 | below the threshold | B1
34 | below the threshold | B2

biological target: T8, LRRC7, Q96NW7; experiment: holdup assay; parameters: key: below the threshold = too weak to quantify, mostly under pKd 3.1 to 4; conditions: plain residues with an end cap or a label only (N-terminal biotin on a linker: ado-ado)

Row | pKd | Binder
35 | below the threshold | B1
36 | 3.8 | B2

biological target: MAST1, Q9Y2H9; experiment: holdup assay; parameters: key: below the threshold = too weak to quantify, mostly under pKd 3.1 to 4; conditions: plain residues with an end cap or a label only (N-terminal biotin on a linker: ado-ado)
Sequence (Q9Y2H9 962-1065): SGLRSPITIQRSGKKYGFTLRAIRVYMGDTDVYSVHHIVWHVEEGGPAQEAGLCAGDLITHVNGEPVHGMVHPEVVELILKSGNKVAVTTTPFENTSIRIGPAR

Row | pKd | Binder
37 | below the threshold | B1
38 | 5.06 | B2

biological target: T9, NHERF3_3, Q5T2W1; experiment: holdup assay; parameters: key: below the threshold = too weak to quantify, mostly under pKd 3.1 to 4; conditions: plain residues with an end cap or a label only (N-terminal biotin on a linker: ado-ado)

Row | pKd | Binder
39 | below the threshold | B1
40 | below the threshold | B2

biological target: T10, NHERF3_4, Q5T2W1; experiment: holdup assay; parameters: key: below the threshold = too weak to quantify, mostly under pKd 3.1 to 4; conditions: plain residues with an end cap or a label only (N-terminal biotin on a linker: ado-ado)

Row | pKd | Binder
41 | below the threshold | B1
42 | 4.19 | B2

biological target: T11, PDZD2_2, O15018; experiment: holdup assay; parameters: key: below the threshold = too weak to quantify, mostly under pKd 3.1 to 4; conditions: plain residues with an end cap or a label only (N-terminal biotin on a linker: ado-ado)

Row | pKd | Binder
43 | 4.45 | B1
44 | 3.95 | B2

biological target: T12, PDZD7_3, Q9H5P4; experiment: holdup assay; parameters: key: below the threshold = too weak to quantify, mostly under pKd 3.1 to 4; conditions: plain residues with an end cap or a label only (N-terminal biotin on a linker: ado-ado)

Row | pKd | Binder
45 | below the threshold | B1
46 | 5.57 | B2

biological target: TJP1_3, Q07157; experiment: holdup assay; parameters: key: below the threshold = too weak to quantify, mostly under pKd 3.1 to 4; conditions: plain residues with an end cap or a label only (N-terminal biotin on a linker: ado-ado)
Sequence (Q07157 416-512): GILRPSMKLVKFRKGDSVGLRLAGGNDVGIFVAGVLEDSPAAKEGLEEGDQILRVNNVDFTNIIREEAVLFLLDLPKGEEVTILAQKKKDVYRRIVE

Row | pKd | Binder
47 | below the threshold | B1
48 | below the threshold | B2

biological target: T13, TJP3_3, O95049; experiment: holdup assay; parameters: key: below the threshold = too weak to quantify, mostly under pKd 3.1 to 4; conditions: plain residues with an end cap or a label only (N-terminal biotin on a linker: ado-ado)

Row | pKd | Binder
49 | below the threshold | B1
50 | below the threshold | B2
